{"source": "patent US8974774", "biological_target": "carcinoembryonic antigen (human) (UniProt P06731)", "sequence (P06731 35-702)": "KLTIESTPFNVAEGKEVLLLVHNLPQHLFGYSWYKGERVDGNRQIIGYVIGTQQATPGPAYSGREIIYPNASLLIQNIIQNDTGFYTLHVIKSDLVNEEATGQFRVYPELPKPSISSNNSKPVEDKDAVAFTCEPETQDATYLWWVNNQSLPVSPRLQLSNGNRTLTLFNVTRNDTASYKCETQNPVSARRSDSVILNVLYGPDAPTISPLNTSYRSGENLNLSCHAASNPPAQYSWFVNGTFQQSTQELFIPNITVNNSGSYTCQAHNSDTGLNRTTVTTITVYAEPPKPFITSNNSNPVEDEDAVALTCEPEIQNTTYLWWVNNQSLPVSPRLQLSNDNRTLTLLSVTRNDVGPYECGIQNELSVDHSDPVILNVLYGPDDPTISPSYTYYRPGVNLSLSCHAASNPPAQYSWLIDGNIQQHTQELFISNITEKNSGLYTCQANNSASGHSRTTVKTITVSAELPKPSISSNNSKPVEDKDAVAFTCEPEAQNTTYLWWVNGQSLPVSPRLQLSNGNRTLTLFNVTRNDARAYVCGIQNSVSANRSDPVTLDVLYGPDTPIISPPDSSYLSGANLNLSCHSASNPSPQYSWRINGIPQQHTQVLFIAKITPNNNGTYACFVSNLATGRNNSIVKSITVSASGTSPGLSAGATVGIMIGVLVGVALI"}
{"substance": "Monoclonal antibody to carcinoembryonic antigen (CEA; clone CD66e, US Biological) covalently conjugated to anionic polyaspartate (3K MW)", "values": [{"measurement": "percent of colon carcinoma cells positive for fluorescein signal", "value": 87.6, "unit": "%"}]}
